Reference: publication PMC3961392 (PLoS Pathogens, 2014)
Numbering of substitutions follows the chain as printed. In names and notes the source's numbering stands.

B1: APOBEC3F (enzyme, human, UniProt Q8IUX4 1-373, looked up)
chain: MKPHFRNTVERMYRDTFSYNFYNRPILSRRNTVWLCYEVKTKGPSRPRLDAKIFRGQVYSQPEHHAEMCFLSWFCGNQLPAYKCFQITWFVSWTPCPDCVAKLAEFLAEHPNVTLTISAARLYYYWERDYRRALCRLSQAGARVKIMDDEEFAYCWENFVYSEGQPFMPWYKFDDNYAFLHRTLKEILRNPMEAMYPHIFYFHFKNLRKAYGRNESWLCFTMEVVKHHSPVSWKRGVFRNQVDPETHCHAERCFLSWFCDDILSPNTNYEVTWYTSWSPCPECAGEVAEFLARHSNVNLTIFTARLYYFWDTDYQEGLRSLSQEGASVEIMGYKDFKYCWENFVYNDDEPFKPWKGLKYNFLFLDSKLQEILE
notes: also called A3F; not shown: GST, N-terminal, cleaved
B2: APOBEC3F NGM mutant (enzyme, human, UniProt Q8IUX4 1-373, looked up)
chain: B1 chain with P191G
notes: also called A3F NGM; A3F 190NGM192; not shown: GST, N-terminal, cleaved

How the values were obtained:
[1] = biological target: the molecule itself; assay: SEC; 10-15 µg of purified enzyme (low enzyme concentration) on a 10 mL Superdex 200 column; 50 mM Tris pH 7.5, 200 mM NaCl; masses and oligomerization states from a Bio-Rad gel filtration standard curve
[2] = biological target: the molecule itself; assay: SEC; data not shown; oligomerization state of the mutant enzymes, method as told for the A3 enzymes (Superdex 200, 50 mM Tris pH 7.5, 200 mM NaCl)

Protein	stoichiometry N [1]	stoichiometry N [2]
B1	4	
B2		4
